# B1: R11: GLYAT variant from the eleventh round of DNA shuffling; SEQ ID NO: 2 (protein)
# chain: MIEVKPINAEDTYDLRHRVLRPNQPIEACMFESDLTRSAFHLGGFYGGKLISVASFHQAEHSELQGKKQYQLRGVATLEGYREQKAGSSLVKHAEEILRKRGADMIWCNARTSASGYYRKLGFSEQGEVFDTPPVGPHILMYKRIT
# modifications: R11 GLYAT variant polypeptide
# B2: R7: GLYAT variant resulting from seven rounds of DNA shuffling of a native GLYAT polypeptide; SEQ ID NO: 1 (protein)
# chain: MIEVKPINAEDTYELRHRILRPNQPIEACMFESDLLRGAFHLGGYYGGKLISIASFHQAEHSELQGQKQYQLRGMATLEGYREQKAGSSLIKHAEEILRKRGADLLWCNARTSASGYYKKLGFSEQGEVFDTPPVGPHILMYKRIT
# modifications: R7 GLYAT variant polypeptide
# B3: native GLYAT: naturally occurring glyphosate N-acetyltransferase from Bacillus licheniformis; SEQ ID NO: 3 (protein, listed as Bacillus licheniformis)
# chain: MIEVKPINAEDTYEIRHRILRPNQPLEACMYETDLLGGAFHLGGYYRGKLISIASFHKAEHSELEGEEQYQLRGMATLEGYREQKAGSTLIRHAEELLRKKGADLLWCNARTSVSGYYEKLGFSEQGEVYDIPPIGPHILMYKKLT
# modifications: ST401 GAT
# How the values were obtained:
# [1] = system: R7 GLYAT; assay: inhibition of R7 GLYAT with respect to glyphosate; assay type: biochemical, B. licheniformis
# Excerpt: See PDB:2JDD for the atomic coordinates and structure factors of the X-ray crystal structure of the ternary complex of R7 GLYAT with AcCoA and 3PG and PDB:2JDC for the atomic coordinates and structure factors of the X-ray crystal structure of the binary complex of R7 GLYAT with oxidized CoA and sulfate bound in the glyphosate binding pocket. See Tables 11 and 12 for the atoms of the R7 GLYAT variant polypeptide and of AcCoA that contact 3PG (i.e., the substrate binding cavity) and the residues of R7 that contact AcCoA, respectively.
# [2] = substrate glyphosate; cited from earlier work
Molecule,mode of inhibition [1],Km [2]
O=C(O)[C@H](O)COP(=O)(O)O [3-phosphoglycerate],competitive inhibitor,
B1,,55 µM
B2,,240 µM
B3,,1270 µM

# From US20120288914A1, “CRYSTAL STRUCTURE OF GLYPHOSATE ACETYLTRANSFERASE (GLYAT) AND METHODS OF USE” (PIONEER HI BRED INTERNATIONAL INC., priority 2009, published 2012)
